Publication PMC6221140

B1: SpoIID (natural protein)
chain: MKNPLVVLLGFVTCSVLVPSLITLVSYKNVELTEKPESPVSINKTIKKSDIEDKGNKEEKNTVNYETVNKKAPIINVYNHITGKTEKMDMENYLCGVLAGEMSSEFDIEALKAQSVAARTYVVYKQEHGKSSKHKNAVVCTDYKHCQEYKSYDTLKKLNGEEWIKNKYSKIQEAVRGTKGQIITYNDKAILPLYFSTSSGKTENSEEVFSAKYPYLKSVESPYDKYSPKFASTLKISNTDFVKSLRRAYSTIVIDVNNLSKQVSITKRSDAGTVEKIKLGNKELTGKDIRTVFKLNSANFDIKFGEGYIDFVVKGYGHGVGMSQWGAEGMAEEGYKYYDILSHYYTDTKIKDIY

Key:
Test in all cases: two-hybrid; BACTH in E. coli BTH101 (cya); full length proteins fused to the C-terminus of T18 (pUT18C) or T25 (pKT25) of CyaA; blue colonies on X-Gal/IPTG plates, 30°C, 24 h, and β-galactosidase activity of liquid cultures in Miller units; biological duplicate
[1] = biological target: SpoIIIAH (Clostridium difficile)
[2] = biological target: SpoIIQ (Clostridium difficile)
[3] = biological target: SpoIIM (Clostridium difficile)
[4] = biological target: SpoIIP H142R (Clostridium difficile)

Row | Molecule | β-galactosidase activity [1] | β-galactosidase activity [2] [MU] | β-galactosidase activity [3] [MU] | β-galactosidase activity [4] [MU]
1 | SpoIIQ (natural protein) | 701 Miller Units | 743 | – | –
2 | B1 | 656 MU | 761 | 699 | 229
